The results in this text go back to the supplement of paper PMC9112550, “Optimization of the antimicrobial peptide Bac7 by deep mutational scanning” (BMC Biology, 2022).

The subject of the data set is Escherichia coli TOP10. Put plainly: shrunken log2 fold change of peptide-encoding DNA abundance (4.5 h post-induction vs induction); higher = less antimicrobial activity (less host growth inhibition). As to conditions: time post-induction: 4.5 h; library: site-saturation at positions 5, 18, 19, 20.
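Also: peptides expressed intracellularly from a pBAD plasmid library in pooled LB shake-flask culture, induced with 0.3% L-arabinose, DNA abundance read by NGS, three biological replicates, DESeq2 with apeglm shrinkage.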

Turning to RRIRYRPPRLPRPRPRPTHVPRP, the “shrunken log2 fold change” value is -0.27.
As to RRIRCRPPRLPRPRPRPSHNPRP, the “shrunken log2 fold change” value is -0.628.
Then RRIRRRPPRLPRPRPRPYAGPRP, with -0.137; and RRIRSRPPRLPRPRPRPYIEPRP, with -0.183; and RRIRIRPPRLPRPRPRPDVDPRP, with -0.297.
Then RRIRERPPRLPRPRPRPTIVPRP, with 0.03; and RRIRWRPPRLPRPRPRPPPEPRP, with 0.822.
Turning to RRIRVRPPRLPRPRPRPKVRPRP, the “shrunken log2 fold change” value came to 0.0291.
Then RRIRKRPPRLPRPRPRPLMVPRP, with 0.0242; and RRIRPRPPRLPRPRPRPWMDPRP, with -0.934; and RRIRGRPPRLPRPRPRPMNMPRP, with -0.318.
With RRIRMRPPRLPRPRPRPCEGPRP the figure was -0.00822; with RRIRYRPPRLPRPRPRPTMYPRP, -0.33.
For RRIRPRPPRLPRPRPRPEFAPRP, the “shrunken log2 fold change” value turned out to be 0.602.
Then RRIRERPPRLPRPRPRPQDLPRP, with -0.351; and RRIRTRPPRLPRPRPRPIEGPRP, with -0.0197; and RRIRGRPPRLPRPRPRPNCGPRP, with 0.0147.
With RRIRLRPPRLPRPRPRPHHPPRP, the “shrunken log2 fold change” value was -0.316.
Then RRIRDRPPRLPRPRPRPADWPRP, with 0.305; and RRIRRRPPRLPRPRPRPDGHPRP, with -0.0521; and RRIRTRPPRLPRPRPRPNDQPRP, with -0.212.
With RRIRDRPPRLPRPRPRPFLAPRP the figure was 0.341; with RRIRRRPPRLPRPRPRPNSMPRP, -0.233.
With RRIRARPPRLPRPRPRPWMWPRP the figure was 0.213.
As to RRIRTRPPRLPRPRPRPWPMPRP, the “shrunken log2 fold change” value amounted to 0.44.
Then RRIRKRPPRLPRPRPRPMFKPRP, with -0.0779.
With RRIRSRPPRLPRPRPRPQANPRP the figure was -0.0559.
RRIRPRPPRLPRPRPRPTCMPRP: the “shrunken log2 fold change” value worked out at 0.219.
With RRIRTRPPRLPRPRPRPAEEPRP the figure was 0.0505; with RRIRSRPPRLPRPRPRPMMLPRP, 0.15.
Then RRIRLRPPRLPRPRPRPVITPRP, with -0.372.
Then RRIRARPPRLPRPRPRPTPDPRP, with 0.848; and RRIRFRPPRLPRPRPRPTETPRP, with -0.0161.
For RRIRFRPPRLPRPRPRPYHYPRP, the “shrunken log2 fold change” value is -0.521.
As for RRIRIRPPRLPRPRPRPDVRPRP, the “shrunken log2 fold change” value was 0.0768.
With RRIRCRPPRLPRPRPRPWWYPRP the figure was -0.136; with RRIRFRPPRLPRPRPRPLVVPRP, -0.0929.
With RRIRFRPPRLPRPRPRPLGIPRP the figure was -0.869; with RRIRQRPPRLPRPRPRPKQEPRP, -0.0419.
Then RRIRTRPPRLPRPRPRPGSYPRP, with -0.0475; and RRIRRRPPRLPRPRPRPRNCPRP, with -0.0356; and RRIRYRPPRLPRPRPRPSFFPRP, with -0.665.
On to RRIRVRPPRLPRPRPRPTWNPRP, for which the “shrunken log2 fold change” value was determined as 0.13.
With RRIRDRPPRLPRPRPRPNNEPRP the figure was -0.526.
With RRIRMRPPRLPRPRPRPQHFPRP, the “shrunken log2 fold change” value is 0.00913.
With RRIRLRPPRLPRPRPRPCDGPRP the figure was -0.181.
RRIRSRPPRLPRPRPRPSLPPRP: the “shrunken log2 fold change” value was -0.352.
On to RRIRNRPPRLPRPRPRPTFLPRP, for which the “shrunken log2 fold change” value was -0.272.
With RRIRNRPPRLPRPRPRPDWIPRP the figure was 0.0186; with RRIRNRPPRLPRPRPRPTHPPRP, -0.235; with RRIRMRPPRLPRPRPRPTCFPRP, 0.105.
With RRIRSRPPRLPRPRPRPRCKPRP the figure was -0.134; with RRIRMRPPRLPRPRPRPYTFPRP, -0.0434; with RRIRSRPPRLPRPRPRPVLMPRP, -0.0465.
With RRIRMRPPRLPRPRPRPGIHPRP the figure was 0.142; with RRIRKRPPRLPRPRPRPTQIPRP, 0.412; with RRIRDRPPRLPRPRPRPIQYPRP, -0.0088.
Take RRIRTRPPRLPRPRPRPTMQPRP: the “shrunken log2 fold change” value came to 0.0459.
With RRIRQRPPRLPRPRPRPQCYPRP the figure was -0.168.
With RRIRQRPPRLPRPRPRPPPHPRP the figure was 0.737; with RRIRNRPPRLPRPRPRPHSNPRP, -0.341; with RRIRNRPPRLPRPRPRPMFRPRP, -0.0515.
Then RRIRVRPPRLPRPRPRPEKKPRP, with -0.0337; and RRIRERPPRLPRPRPRPTHCPRP, with -0.115.
Turning to RRIRYRPPRLPRPRPRPNNTPRP, the “shrunken log2 fold change” value was -1.32.
Then RRIRQRPPRLPRPRPRPWPHPRP, with 0.172; and RRIRPRPPRLPRPRPRPKIYPRP, with -0.000172.
RRIRLRPPRLPRPRPRPNYPPRP: the “shrunken log2 fold change” value is -0.156.
In the case of RRIRDRPPRLPRPRPRPIQNPRP, the “shrunken log2 fold change” value is 0.0608.
With RRIRNRPPRLPRPRPRPDTDPRP the figure was 0.0251; with RRIRKRPPRLPRPRPRPKCKPRP, 0.545.
With RRIRCRPPRLPRPRPRPCQQPRP the figure was -0.0438.
As to RRIRFRPPRLPRPRPRPLWQPRP, the “shrunken log2 fold change” value is -0.308.
Then RRIRVRPPRLPRPRPRPEFQPRP, with -0.0311; and RRIRRRPPRLPRPRPRPEELPRP, with 0.338.
On to RRIRLRPPRLPRPRPRPDPGPRP, for which the “shrunken log2 fold change” value was -0.146.
Then RRIRQRPPRLPRPRPRPANAPRP, with -0.0699; and RRIRTRPPRLPRPRPRPTSVPRP, with 0.0486; and RRIRNRPPRLPRPRPRPWCWPRP, with -0.0119.
As for RRIRHRPPRLPRPRPRPNLDPRP, the “shrunken log2 fold change” value was -1.17.
With RRIRARPPRLPRPRPRPCIAPRP the figure was -0.0146; with RRIRVRPPRLPRPRPRPWRRPRP, 0.208.
Then RRIRIRPPRLPRPRPRPWGGPRP, with 0.297; and RRIRDRPPRLPRPRPRPQYSPRP, with -0.028; and RRIRCRPPRLPRPRPRPTRFPRP, with 0.696.
With RRIRSRPPRLPRPRPRPEGFPRP the figure was 0.272.
Regarding RRIRSRPPRLPRPRPRPRRPPRP, the “shrunken log2 fold change” value was 0.364.
With RRIRWRPPRLPRPRPRPMRFPRP the figure was 0.00175.
With RRIRRRPPRLPRPRPRPHVTPRP the figure was -0.154; with RRIRDRPPRLPRPRPRPHDYPRP, -0.0787.
For the sequence RRIRFRPPRLPRPRPRPWIIPRP, the “shrunken log2 fold change” value is -0.00565.
